In one experiment the target is T1, human CCR8 (human, UniProt P51685 1-355).
T1 construct: Transiently expressed on HEK 293T cells, or endogenous on HuT78/HUT78 cells and primary human regulatory T cells; also called hCCR8; human C-C chemokine receptor type 8
The experiment can be described thus: KinExA, HUT78 cells. How it is done: The cells were counted using a hemocytometer. The HUT78 cells were titrated and incubated with two different constant antibody concentrations, one at 48 pM and the other at 2 nM, in HUT media (RPMI 1640, 10% FBS, 10 mM HEPES, 2 mM L-Glut, 1 mM Sod. Pyr, 0.1 mM NEAA, 50 uM 2-ME) with 0.05% Sodium Azide. For the high [Ab] equilibrium set, HUT78 cells were titrated from 62.5 million per milliliter concentration 1:2 for 10 points in eppendorf tubes and equilibrated with 2 nM antibody in a total volume of 400 μl. For the low [Ab] equilibrium set, HUT78 cells were titrated from 3.89 million per milliliter concentration, 1:2 for 10 points in 50 ml Fulcon tubes and equilibrated with 48 pM antibody in a total volume of 15.5 mL.
(§1) For each equilibrium sample the free [Ab] was detected by running the equilibrium samples through the coated beads followed by a quick wash with the running buffer (1×PBS pH7.4+1% BSA+0.05% Sodium Azide). The secondary detection antibody (goat anti-huIgG (H+L) Alexa 647) was run through the flow cell at 680 ng/ml and 500 μL per run. The KinExA voltage output signal was used in KinExA software to calculate the Kd. […]
Cells in media were serially diluted and incubated with 48 pM or 2 nM active binding site concentration of antibody in media in the presence of 0.05% NaN3, and allowed to equilibrate. The free mAb left in the supernatant was measured as described above. […]
(A kinetic exclusion assay measures how much of one partner remains free in solution.)

The target in experiment [1] is T2, cynomolgus monkey CCR8 (comprising threonine at position four) (cynomolgus monkey, UniProt O97665 1-356 (rhesus entry)).
T2 construct: also called Cyno CCR8; cynomolgus CCR8
The experiment can be described thus: KinExA, 293T cells expressing cynomolgus CCR8. How it is done: For each equilibrium set, reference point controls included a sample with cell media only and a sample without cells. The equilibrium sets were incubated for 24 hours at room temperature, with shaking. After 24 hours of incubation, the supernatants were separated from the cell pellets via centrifugation at 500×g for five minutes. The supernatants of both high [Ab] and low [Ab] equilibrium sets were then run through a KinExA 3200 machine.
Each equilibrium sample set was read in duplicate on the KinExA machine. For low [Ab] equilibrium samples, 6.8 mL and 4.6 mL of each sample were run in duplicate, respectively, for human and cyno CCR8 equilibrium experiments. For high [Ab] equilibrium samples 16 μL and 75 μL of each sample were run in duplicate, respectively for human and cyno CCR8 equilibrium experiments.
as §1

For experiment [2], the target named is T3, Peptide 1 (biotinylated N-terminus CCR8 peptide, amino acids 1-12) (human, also: biotinylated, position not given here).
T3 construct: Captured on streptavidin polystyrene beads
T3 peptide: MDYTLDLSVTTV
The experiment can be described thus: flow cytometry, biotinylated peptide on streptavidin beads, antibody 5 ug/mL. The method, then: (§2) The biotinylated human CCR8 peptides were captured on streptavidin polystyrene beads (Spherotech) in FACS buffer (PBS+2% Fetal Bovine Serum) at a final protein concentration of 50-100 ng/ml and incubated for 30 minutes at room temperature. Beads were washed twice with FACS buffer to remove unbound protein, centrifuged to pellet the beads, and resuspended and pooled together in StabilGuard (SurModics). The pooled biotinylated human CCR8 coated beads were added to hybridoma supernatant samples in a 96-well plate, such that the final antibody concentration was 5.0 μg/mL, and then incubated for one hour at room temperature.
(§3) Plates were washed twice with FACS buffer, centrifuged to pellet the beads, and supernatant was removed and resuspended in FACS buffer to remove unbound antibodies. Alexa Fluor 488 goat anti-human or rat IgG (Fcγ fragment specific) secondary antibodies (Jackson ImmunoResearch) made up in FACS buffer at 5.0 μg/mL were added to each well, resuspended with beads and incubated for 15 minutes at room temperature. Plates were washed twice with FACS buffer, centrifuged to pellet the beads, and supernatant was removed and resuspended in FACS buffer to remove unbound secondary antibodies. Samples were then resuspended in FACS buffer and read on either IntelliCyt® iQue Flow Cytometer. […]
In general terms: In flow cytometry, cells or beads pass a laser one at a time.

Experiment [3] concerns the target T4, Peptide 3 (biotinylated N-terminus CCR8 peptide, amino acids 13-24) (human, also: biotinylated, position not given here).
T4 construct: Captured on streptavidin polystyrene beads
T4 peptide: TDYYYPDIFSSP
The experiment can be described thus: flow cytometry, biotinylated peptide on streptavidin beads. The method, then:
as §2
(§4) Plates were washed twice with FACS buffer, centrifuged to pellet the beads, and supernatant was removed and resuspended in FACS buffer to remove unbound antibodies. Alexa Fluor 488 goat anti-human or rat IgG (Fcγ fragment specific) secondary antibodies (Jackson ImmunoResearch) made up in FACS buffer at 5.0 μg/mL were added to each well, resuspended with beads and incubated for 15 minutes at room temperature. Plates were washed twice with FACS buffer, centrifuged to pellet the beads, and supernatant was removed and resuspended in FACS buffer to remove unbound secondary antibodies. Samples were then resuspended in FACS buffer and read on either IntelliCyt® iQue Flow Cytometer.
(§5) Data are represented as a ratio of geometric mean binding to beads coated with specific peptide divided by geometric mean of binding to a bead coated with a negative control peptide (peptide with unrelated sequence). A value above two represents presence of binding.

For experiment [4], the target named is T4, Peptide 3 (biotinylated N-terminus CCR8 …). The experiment can be described thus: flow cytometry, biotinylated peptide on streptavidin beads, antibody 5 ug/mL. How it is done: as §2, §3
Experiment [5] addresses T3, Peptide 1 (biotinylated N-terminus CCR8 …). The experiment can be described thus: flow cytometry, biotinylated peptide on streptavidin beads. The method, then:
as §2, §4, §5

Where no end group is shown, it is not given here.

T1 sequence (P51685 whole entry): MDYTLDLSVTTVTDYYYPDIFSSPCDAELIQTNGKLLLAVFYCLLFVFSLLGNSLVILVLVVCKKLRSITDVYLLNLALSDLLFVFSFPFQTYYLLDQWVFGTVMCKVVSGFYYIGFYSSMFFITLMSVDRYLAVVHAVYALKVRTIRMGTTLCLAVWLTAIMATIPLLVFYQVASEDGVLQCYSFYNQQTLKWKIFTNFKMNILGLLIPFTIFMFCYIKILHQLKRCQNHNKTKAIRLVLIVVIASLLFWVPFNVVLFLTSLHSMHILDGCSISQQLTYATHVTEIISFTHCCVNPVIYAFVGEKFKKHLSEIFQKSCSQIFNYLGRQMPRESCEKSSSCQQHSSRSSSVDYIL
T2 sequence (O97665 other isoform, or with tags, fused parts or gaps): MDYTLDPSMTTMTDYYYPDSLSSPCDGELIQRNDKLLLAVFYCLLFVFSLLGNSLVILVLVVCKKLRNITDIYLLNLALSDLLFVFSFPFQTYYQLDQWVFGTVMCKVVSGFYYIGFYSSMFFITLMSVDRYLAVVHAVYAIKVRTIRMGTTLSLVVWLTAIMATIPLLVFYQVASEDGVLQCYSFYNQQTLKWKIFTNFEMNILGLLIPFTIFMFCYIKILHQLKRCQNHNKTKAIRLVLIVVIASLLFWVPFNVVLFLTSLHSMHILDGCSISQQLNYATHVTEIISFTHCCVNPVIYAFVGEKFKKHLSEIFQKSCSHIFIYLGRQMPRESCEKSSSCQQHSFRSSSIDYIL

B1: Antibody 1 IgG2 (antibody)
heavy: EVQLVESGGGLVKPGGSLRLSCAASGFTFSNARMGWVRQAPGKGLEWVGRIKSKTEGGTRDYAAPVKGRFTISRDDSKNTLYLQMNSLKTEDTAVYYCTSYSGVWGQGTMVTVSSASTKGPSVFPLAPCSRSTSESTAALGCLVKDYFPEPVTVSWNSGALTSGVHTFPAVLQSSGLYSLSSVVTVPSSNFGTQTYTCNVDHKPSNTKVDKTVERKCCVECPPCPAPPVAGPSVFLFPPKPKDTLMISRTPEVTCVVVDVSHEDPEVQFNWYVDGVEVHNAKTKPREEQFNSTFRVVSVLTVVHQDWLNGKEYKCKVSNKGLPAPIEKTISKTKGQPREPQVYTLPPSREEMTKNQVSLTCLVKGFYPSDIAVEWESNGQPENNYKTTPPMLDSDGSFFLYSKLTVDKSRWQQGNVFSCSVMHEALHNHYTQKSLSLSPGK
light: not shown
notes: IgG2; tested as hybridoma supernatant
Usually Kd stands for the concentration at which binding is half-saturated. Take B1: the Kd with human CCR8 was determined as 0.216 nM; in experiment [1], 0.229 nM. Also, in experiment [2], the “ratio of geometric mean, peptide bead / negative control peptide bead” value is 3. Moreover, the binding result in experiment [3] is on record as “no binding”.

B2: Antibody 2 IgG2 (antibody, V domains shown)
VH: QVQLVESGGGVVQPGRSLRLSCAASGFTFSNYGMHWVRQAPGKGLEWVAVISYDGSNKFYADSVKGRFTISRDNSKKTLYLQMSSLRVEDTAVYYCARAGGIGRFDYWGQGTLVTVSS
VL: DFVMTQTPLSLSVTPGQPASISCKYSQSLLHSDGKTYLFWYLQKPGQPPHLLIYEVSNRFSGVPDRFSGSGSGTDFTLKISRVEAEDVGLYYCMQTLKLPLTFGGGTKVEINR
notes: as for B1
On to B2, for which the Kd with human CCR8 was > 5 nM. Moreover, the “ratio of geometric mean, peptide bead / negative control peptide bead” value in experiment [4] worked out at 157. In experiment [5], the binding result is listed as “no binding”.

Source of the values: patent US20250171549A1 (Amgen, published 2025).
